How the values were obtained:
[1] = Enzyme assay in vitro with 4,4'-dihydroxy-3,3'-dimethoxystilbene as substrate, vanillin detected by HPLC; type: biochemical; settings: 30° C., 50 mM Tris-HCl pH 8.5, substrate 200 μM
Method: The activity of FfLSD was determined by two substrates, 4,4′-dihydroxy-3,3′-dimethoxystilbene and isoeugenol, respectively. For measuring the activity toward 4,4′-dihydroxy-3,3′-dimethoxystilbene, the activity was assayed at 30° C. in 2.5 ml of 50 mM Tris-HCl buffer (PH 8.5) containing suitable amounts of enzyme solution. The enzyme reaction was started by addition of substrates dissolved in 10 μL of N,N-dimethylformamide (DMF) to a final concentration of 200 μM. The reaction product, vanillin, was detected with HPLC analysis.

[2] = Enzyme assay in vitro with isoeugenol as substrate, formation of vanillin by HPLC; type: biochemical; settings: 10 mM isoeugenol, 10 min
Method: The activity was also measured with isoeugenol by measuring the formation of vanillin. The reaction mixture contained 10 mM isoeugenol, 100 mM potassium phosphate buffer (pH 7.0), 10% (v/v) ethanol and an appropriate amount of enzyme, in a total volume of 1 ml. The reaction was started, by adding isoeugenol as ethanol solution, carried out at 30° C. for 10 min with reciprocal shaking (160 strokes min^−1) and stopped with 1 ml of methanol. After centrifugation at 21,500, the supernatant was analyzed by HPLC for the determination of isoeugenol, vanillin, vanillyl alcohol. FfLSD enzyme treated in boiling water for 5 minutes was used as the negative control.
Almost all isoeugenol added to the reaction mixture was converted to vanillin (top panel). As expected, no vanillin was produced with the negative control (bottom panel).

B1: FfLSD: putative lignostilbene-α, β-dioxygenase from the fungus Fusarium fujikuroi, 522 amino acids (SEQ ID NO: 2), recombinant, His-tagged (protein, listed as Fusarium fujikuroi)
chain: MSAPEEHHGLKSKWPQAFDLAGSNSPCRIEGEIGDLVVLGEIPPAIDGTFYRVMCDPFVPPHPDNVPLDGDGHVSAFRIYNGRVDMKIKYVETERYKLERKAGKALFGLYRNPFTHHPCVRAAVDSTANTNMVYWADRLLALKESALPYEMHPDTLETLCYDPFGGQVKAKAFTAHPKIDPFSDELVVYGYEAKGLATRDIVIYSLDKNGIKHDEQWIESPWCAPIHDCVITPNFIVLILWPFEASVERMKAGKQHWAWDYSLPATFIVVPRRKTSKIPASWKQGEHRVYHWKNCMNIHAGSAWEEDNGKLYLETSRVHDNAFPFFPPVDGRMPAPDAKADFVRWEIDLNAPSGTQMADPEVILDVPSEFPRIDERFMTKRNEYLFLNVFIPETSQGGTNIFHGLNGLAMHNHSTGETKWFFAGKDSLVQEPIFIPRTADAPEGDGWVIAMLERRVANRSELVVLDTREFEKPVAFIQLPMHLKAQVHGNWIDSRTRASTEAIVRQIGEVKVSARGALEPLA
modifications: His tag
For B1, the “activity toward 4,4′-dihydroxy-3,3′-dimethoxystilbene” value [1] was “did not show activity”, the “isoeugenol added to the reaction mixture converted to vanillin” value ([2]; pH 7.0, 30° C., HPLC (FIG. 6)) was “Almost all” and the activity toward isoeugenol ([2]; potassium phosphate pH 7.0, 30° C.) was “high activity”.
